Experimental data from US20180155413A1 (AstraZeneca / MedImmune, published 2018).

B1: FBC39 IgG (antibody, V domains shown)
VH: EVQLVVSGGGLVKPGGSLRLSCAASGLSFLNAWMSWVRQAPGKGLEWVGRIKSNTDGGTTDYAAPVKGRFSISRDDSKNMLFLHMSSLRTEDTAVYYCATDGPYSDDFRSGYAARYRYFGMDVWGQGTTVTVSS
VL: DIQMTQSPSSVSASVGDRVTITCRASQDISTWLAWYQQKPGKAPKLLIYAASSLQSGVPSRFSGSGSGTDFTLTISSLQPEDFATYFCQQANSFPPTFGQGTKLEIK
B2: FY1/39 BiS1 100/44 (bispecific antibody)
light: DIQMTQSPSSVSASVGDRVTITCRASQDISTWLAWYQQKPGKAPKLLIYAASSLQSGVPSRFSGSGSGTDFTLTISSLQPEDFATYFCQQANSFPPTFGCGTKLEIKGGGGSGGGGSGGGGSGGGGSEVQLVVSGGGLVKPGGSLRLSCAASGLSFLNAWMSWVRQAPGKCLEWVGRIKSNTDGGTTDYAAPVKGRFSISRDDSKNMLFLHMSSLRTEDTAVYYCATDGPYSDDFRSGYAARYRYFGMDVWGQGTTVTVSSGGGGSGGGGSDIQMTQSPSSLSASVGDRVTITCRTSQSLSSYLHWYQQKPGKAPKLLIYAASSLQSGVPSRFSGSGSGTDFTLTISSLQPEDFATYYCQQSRTFGQGTKVEIKRTVAAPSVFIFPPSDEQLKSGTASVVCLLNNFYPREAKVQWKVDNALQSGNSQESVTEQDSKDSTYSLSSTLTLSKADYEKHKVYACEVTHQGLSSPVTKSFNRGEC
heavy: not shown
B3: FBD94 IgG (antibody, V domains shown)
VH: EVQLVESGGGLVQPGRSLRLSCAVSGFIFEDYAINWVRQAPGKGLEWVSIISWDSGRIGYADSVRGRFTISRDNAKNSSFLQMNSLRPEDTAVYYCVKDMLAYYYDGSGIRYNLYGMDVWGQGTTVTVSS
VL: EIVLTQSPATLSLSPGERATLSCRASRSITTFLAWYQQKPGQAPRLLIYDASNRATGVPARFSGSGSGTDFTLTINSLEPDDFAIYYCQQRDHWPPIFGQGTRLEIK
B4: FY1 IgG (antibody, V domains shown)
VH: QVQLQESGPGLVKPSQTLSLTCAISGDSVSSNNAVWNWIRQSPSRGLEWLGRTYYRSKWYNDYAESVKSRITVNPDTSKNQFSLHLKSVTPEDTAVFYCVRSGHITVFGVNVDAFDMWGQGTMVTVSS
VL: DIQMTQSPSSLSASVGDRVTITCRTSQSLSSYLHWYQQKPGKAPKLLIYAASSLQSGVPSRFSGSGSGTDFTLTISSLQPEDFATYYCQQSRTFGQGTKVEIK
B5: GL20/39FTL BiS4 100/44 (bispecific antibody)
light: DIQMTQSPSSLSASVGDRVTITCRTSQSLSSYTHWYQQKPGKAPKLLIYAASSRGSGVPSRFSGSGSGTDFTLTISSLQPEDFATYYCQQSRTFGQGTKVEIK
heavy (part 1 of 2): QVQLQQSGPGLVKPSQTLSLTCAISGDSVSSYNAVWNWIRQSPSRGLEWLGRTYYRSGWYNDYAESVKSRITINPDTSKNQFSLQLNSVTPEDTAVYYCARSGHITVFGVNVDAFDMWGQGTMVTVSS
heavy (part 2 of 2): DIQMTQSPSSVSASVGDRVTITCRASQDISTWLAWYQQKPGKAPKLLIYAASSLQSGVPSRFSGSGSGTDFTLTISSLQPEDFATYYCQQANSFPPTFGCGTKLEIKGGGGSGGGGSGGGGSGGGGSEVQLVESGGGLVKPGGSLRLSCAASGFTFLNAWMSWVRQAPGKCLEWVGRIKSNTDGGTTDYAAPVKGRFTISRDDSKNTLYLQMSSLKTEDTAVYYCTTDGPYSDDFRSGYAARYRYFGMDVWGQGTTVTVSS
B6: GL20 IgG (antibody, V domains shown)
VH: QVQLQQSGPGLVKPSQTLSLTCAISGDSVSSYNAVWNWIRQSPSRGLEWLGRTYYRSGWYNDYAESVKSRITINPDTSKNQFSLQLNSVTPEDTAVYYCARSGHITVFGVNVDAFDMWGQGTMVTVSS
VL: DIQMTQSPSSLSASVGDRVTITCRTSQSLSSYTHWYQQKPGKAPKLLIYAASSRGSGVPSRFSGSGSGTDFTLTISSLQPEDFATYYCQQSRTFGQGTKVEIK
B7: FY1/94 BiS2 100/44 (bispecific antibody)
light: DIQMTQSPSSLSASVGDRVTITCRTSQSLSSYLHWYQQKPGKAPKLLIYAASSLQSGVPSRFSGSGSGTDFTLTISSLQPEDFATYYCQQSRTFGQGTKVEIKRTVAAPSVFIFPPSDEQLKSGTASVVCLLNNFYPREAKVQWKVDNALQSGNSQESVTEQDSKDSTYSLSSTLTLSKADYEKHKVYACEVTHQGLSSPVTKSFNRGEC
heavy: not shown
B8: FY1/94 BiS4 100/44 (bispecific antibody)
light: DIQMTQSPSSLSASVGDRVTITCRTSQSLSSYLHWYQQKPGKAPKLLIYAASSLQSGVPSRFSGSGSGTDFTLTISSLQPEDFATYYCQQSRTFGQGTKVEIKRTVAAPSVFIFPPSDEQLKSGTASVVCLLNNFYPREAKVQWKVDNALQSGNSQESVTEQDSKDSTYSLSSTLTLSKADYEKHKVYACEVTHQGLSSPVTKSFNRGEC
heavy: not shown
B9: FY1/39 BiS3 100/44 (bispecific antibody)
light: DIQMTQSPSSLSASVGDRVTITCRTSQSLSSYLHWYQQKPGKAPKLLIYAASSLQSGVPSRFSGSGSGTDFTLTISSLQPEDFATYYCQQSRTFGQGTKVEIKRTVAAPSVFIFPPSDEQLKSGTASVVCLLNNFYPREAKVQWKVDNALQSGNSQESVTEQDSKDSTYSLSSTLTLSKADYEKHKVYACEVTHQGLSSPVTKSFNRGEC
heavy: not shown
B10: FY1/39 BiS2 100/44 (bispecific antibody)
light: DIQMTQSPSSLSASVGDRVTITCRTSQSLSSYLHWYQQKPGKAPKLLIYAASSLQSGVPSRFSGSGSGTDFTLTISSLQPEDFATYYCQQSRTFGQGTKVEIKRTVAAPSVFIFPPSDEQLKSGTASVVCLLNNFYPREAKVQWKVDNALQSGNSQESVTEQDSKDSTYSLSSTLTLSKADYEKHKVYACEVTHQGLSSPVTKSFNRGEC
heavy: not shown
B11: FY1/39 BiS4 100/44 (bispecific antibody)
light: DIQMTQSPSSLSASVGDRVTITCRTSQSLSSYLHWYQQKPGKAPKLLIYAASSLQSGVPSRFSGSGSGTDFTLTISSLQPEDFATYYCQQSRTFGQGTKVEIKRTVAAPSVFIFPPSDEQLKSGTASVVCLLNNFYPREAKVQWKVDNALQSGNSQESVTEQDSKDSTYSLSSTLTLSKADYEKHKVYACEVTHQGLSSPVTKSFNRGEC
heavy: not shown
B12: GL20/39FTL BiS4 43/105 (bispecific antibody)
light: DIQMTQSPSSLSASVGDRVTITCRTSQSLSSYTHWYQQKPGKAPKLLIYAASSRGSGVPSRFSGSGSGTDFTLTISSLQPEDFATYYCQQSRTFGQGTKVEIKRTVAAPSVFIFPPSDEQLKSGTASVVCLLNNFYPREAKVQWKVDNALQSGNSQESVTEQDSKDSTYSLSSTLTLSKADYEKHKVYACEVTHQGLSSPVTKSFNRGEC
heavy: not shown
B13: GL20/39 BiS4 100/44 (bispecific antibody)
light: DIQMTQSPSSLSASVGDRVTITCRTSQSLSSYTHWYQQKPGKAPKLLIYAASSRGSGVPSRFSGSGSGTDFTLTISSLQPEDFATYYCQQSRTFGQGTKVEIKRTVAAPSVFIFPPSDEQLKSGTASVVCLLNNFYPREAKVQWKVDNALQSGNSQESVTEQDSKDSTYSLSSTLTLSKADYEKHKVYACEVTHQGLSSPVTKSFNRGEC
heavy: not shown
B14: FY1/39 BiS4 43/105 (bispecific antibody)
light: DIQMTQSPSSLSASVGDRVTITCRTSQSLSSYLHWYQQKPGKAPKLLIYAASSLQSGVPSRFSGSGSGTDFTLTISSLQPEDFATYYCQQSRTFGQGTKVEIKRTVAAPSVFIFPPSDEQLKSGTASVVCLLNNFYPREAKVQWKVDNALQSGNSQESVTEQDSKDSTYSLSSTLTLSKADYEKHKVYACEVTHQGLSSPVTKSFNRGEC
heavy: not shown

Each binder was assayed against recombinant HA derived from A/California/07/2009 H1N1 (influenza A virus, UniProt P26140 18-529) (assay: ELISA, rHA coated on plate).

Row | Binder | binding result | EC50
1 | B1 | no binding | –
2 | B2 | – | 6.85 nM
3 | B3 | no binding | –
4 | B4 | – | 2.15 nM
5 | B5 | – | 0.99 nM
6 | B6 | – | 1.99 nM
7 | B7 | – | 6.83 nM
8 | B8 | – | 1.53 nM
9 | B9 | – | 1.52 nM
10 | B10 | – | 3.97 nM
11 | B11 | – | 1.19 nM
12 | B12 | – | 0.86 nM
13 | B13 | – | 0.95 nM
14 | B14 | – | 0.78 nM
